Data set [1] concerns GABP-alpha + GABP-beta1 co-expressed in L6 cells (Homo sapiens). Description: cell_activity. As to conditions: luciferase reporter in L6 cells, n=24, p<0.001.
The target in data set [2] is GABP-alpha/GABP-beta1 heterodimer (Homo sapiens, UniProt Q06546;Q06547 Q06546:1-454,Q06547:2-395). Description: EMSA; enhanced relative to GABP-alpha alone, multimeric complexes; 20 mM HEPES pH 7.6, 1 mM MgCl2, 40 mM KCl, on ice. Conditions: tags: GST fusions (pGEX), reconstituted in vitro; label: 32P 5'-end. The procedure:
(§1) Nuclear extracts were prepared from dishes of L6 myotubes cultured to confluence and total proteins quantified, as previously described [Ausubel F et al; Current Protocols in Molecular Biology; Wiley, N.Y., 1995]. The double stranded UtroNBox probe used was 5′ATCTTCcggaa C 3′ (SEQ ID NO: 7) (N-box underlined, ets-domain italicised and lower case) which was end-labelled with g-P³² ATP using T4 Polynucleotide kinase. Typically, radiolabelled probe (1 ng c. 10-100,000 cpm) was incubated on ice for 20 minutes with 10 μg nuclear extracts or 1 μl GST fusion proteins in a 12.5 μL reaction buffer containing 20 mM HEPES pH 7.6, 1 mM MgCl₂, 0.1 mM EGTA, 40 mM KCl, 10% Glycerol, 1 μg ssDNA. Competition with cold probe was performed with pre-incubation with 1000× excess of unlabelled UtroNBox probe. Complexes were resolved by electrophoresis at 200 V for 2 Hours on 4% Acrylamide gels in 25 mM Tris, 192 mM Glycine, 1 mM EDTA (for nuclear extracts) and 12.5 mM Tris, 96 mM Glycine, 0.5 mM EDTA (for fusion proteins) prior to autoradiographic analysis using a Storm Phosphorimager (Molecular Dynamics, Sunnyvale, Calif.).
(§2) Electrophoretic mobility shift assay was performed with the radiolabelled oligonucleotide UtroNBox probe and purified GABP-α and GABP-β fusion proteins. […]
On the technique in general: In EMSA bound probe runs differently from free probe, usually more slowly.

Data set [3] concerns the target GABP-beta1 (Homo sapiens, UniProt Q06547 Q06547:2-395). Briefly: EMSA; GABP-beta alone; 20 mM HEPES pH 7.6, 1 mM MgCl2, 40 mM KCl, on ice. Conditions: tags: GST fusion (pGEX); label: 32P 5'-end. As for the experimental part: as §1, §2
The target of data set [4] is T1, GABP-alpha (Homo sapiens, UniProt Q06546 Q06546:1-454).
T1 sequence: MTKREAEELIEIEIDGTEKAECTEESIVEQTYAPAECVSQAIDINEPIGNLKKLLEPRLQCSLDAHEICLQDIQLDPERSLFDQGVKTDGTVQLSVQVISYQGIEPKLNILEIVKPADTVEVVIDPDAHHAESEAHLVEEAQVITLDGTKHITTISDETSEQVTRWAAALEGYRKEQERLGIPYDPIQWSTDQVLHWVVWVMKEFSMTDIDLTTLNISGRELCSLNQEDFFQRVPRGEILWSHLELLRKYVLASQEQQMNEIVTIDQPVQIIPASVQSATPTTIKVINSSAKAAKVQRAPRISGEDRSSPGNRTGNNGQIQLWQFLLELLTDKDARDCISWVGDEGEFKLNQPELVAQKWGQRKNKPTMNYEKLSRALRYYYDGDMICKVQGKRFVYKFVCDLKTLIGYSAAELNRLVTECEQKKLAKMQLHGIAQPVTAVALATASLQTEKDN
Description: EMSA; competed by 1000x unlabelled probe; 20 mM HEPES pH 7.6, 1 mM MgCl2, 40 mM KCl, on ice. Conditions: tags: GST fusion (pGEX); label: 32P 5'-end. The procedure: as §1, §2

This is an account of results in patent publication US20020086017, “GA binding protein and neurite derived growth factors for use in the treatment of muscular dystrophy” (published 2002).

GABP-beta1, sequence (Q06547 2-395, one chain of several): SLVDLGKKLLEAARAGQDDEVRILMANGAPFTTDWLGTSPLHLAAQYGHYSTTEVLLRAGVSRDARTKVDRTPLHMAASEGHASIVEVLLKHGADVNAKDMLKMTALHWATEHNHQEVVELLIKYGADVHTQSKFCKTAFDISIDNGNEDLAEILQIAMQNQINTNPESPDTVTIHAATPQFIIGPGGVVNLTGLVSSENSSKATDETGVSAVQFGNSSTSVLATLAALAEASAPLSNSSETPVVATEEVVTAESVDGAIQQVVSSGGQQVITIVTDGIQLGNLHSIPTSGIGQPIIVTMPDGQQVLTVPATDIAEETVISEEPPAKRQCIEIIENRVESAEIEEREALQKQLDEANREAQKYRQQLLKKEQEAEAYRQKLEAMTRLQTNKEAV
GABP-alpha/GABP-beta1 heterodimer, sequence (Q06547 2-395, one chain of several): as above

Regarding “human utrophin promoter in pPUBF luciferase reporter”, the activity in data set [1] was 238 % of control.

B1: UtroNBox probe (dsDNA)
DNA 1: ATCTTCCGGAAC
DNA 2: GTTCCGGAAGAT
Consider B1, for which the binding result in data set [2] is given as “binds”; in data set [3] it was “no binding”; in data set [4], “binds”.
